The values below come from patent US20020098189A1 (AstraZeneca / MedImmune, published 2002).

The koff is the rate constant with which the complex falls apart. In general, kon refers to the second-order rate constant of association.

Substitutions are numbered along the chain they refer to. A value given as a limit tells only on which side of the number the result lay.

B1: Reference clone (Fab fragment with the sequences of FIG. 2 and the CDRs of Table 1) (Fab, V domains shown)
VH: QVTLRESGPALVKPTQTLTLTCTFSGFSLSTSGMSVGWIRQPPGKALEWLADIWWDDKKDYNPSLKSRLTISKDTSKNQVVLKVTNMDPADTATYYCARSMITNWYFDVWGQGTTVTVSS
VL: DIQMTQSPSTLSASVGDRVTITCSASSSVGYMHWYQQKPGKAPKLLIYDTSKLASGVPSRFSGSGSGTEFTLTISSLQPDDFATYYCFQGSGYPFTFGGGTKVEIK
notes: also called basic structure
B2: Clone 15 (Fab) (Fab, V domains shown)
VH: B1 VH with S32A, D57G, D60S, S67D, S100D, T103F, W105F
VL: B1 VL with A25L, S28R, S51M, K52Y, L53Q, A54S
B3: Clone 8 (Fab) (Fab, V domains shown)
VH: B1 VH with S32A, S100D, W105F
VL: B1 VL with S51F, K52R
B4: Clone 7 (Fab) (Fab, V domains shown)
VH: B1 VH with S32A, S100D, W105F
VL: B1 VL with S28R, S51F
B5: Clone 3 (Fab) (Fab, V domains shown)
VH: B1 VH with S32A, S100D, T103F
VL: B1 VL with S51Y, L53Q, A54T
B6: Clone 6 (Fab) (Fab, V domains shown)
VH: B1 VH with S32A, W105F
VL: B1 VL with S51F, G92F
B7: Clone 12 (Fab) (Fab, V domains shown)
VH: B1 VH with S32A, D57G, D60H, S67D, S100D, T103F, W105F
VL: B1 VL with A25L, S28R, S51F, A54S
B8: Clone 9 (Fab) (Fab, V domains shown)
VH: B1 VH with S32P, D60H, S67D, S100D, T103F, W105F
VL: B1 VL with A25L, S28R, S51F, K52Y, A54S
B9: Clone 5 (Fab) (Fab, V domains shown)
VH: B1 VH with S32A, S100D, W105F
VL: B1 VL with S51F
B10: Clone 4 (Fab) (Fab, V domains shown)
VH: B1 VH with S32A, S100D, T103F
VL: B1 VL with S51R, K52Y, A54S
notes: also called H3-3F4
B11: Clone 2 (Fab) (Fab, V domains shown)
VH: B1 VH with S32A, S100D, T103F
VL: B1 VL with S51F
B12: Clone 13 (Fab) (Fab, V domains shown)
VH: B1 VH with S32A, D57G, S67D, S100D, T103F, W105F
VL: B1 VL with S28R, S51F, A54S
B13: Clone 1 (Fab) (Fab, V domains shown)
VH: B1 VH with S32A, S100D, W105F
VL: B1 VL with S51F, A54T
B14: Clone 11 (Fab) (Fab, V domains shown)
VH: B1 VH with S32P, D57G, D60H, S67D, S100D, T103F, W105F
VL: B1 VL with A25P, S28R, S51M, K52R
B15: Clone 14 (Fab) (Fab, V domains shown)
VH: B1 VH with S32A, D60H, S67D, S100D, T103F
VL: B1 VL with A25P, S28R, S51Y, K52R, L53H, A54S
B16: Clone 10 (Fab) (Fab, V domains shown)
VH: B1 VH with S32P, D57G, D60H, S67D, S100D, T103F, W105F
VL: B1 VL with A25L, S28R, S51R, K52G, A54P
B17: Clone 24 (IgG) (antibody, V domains shown)
VH: B1 VH with S32A, D57G, D60H, S67D, S100D, T103F
VL: DIQMTQSPSTLSASVGDRVTITCSLSSRVGYMHWYQQKPGKAPKLLIYDTFKLSSGVPSRFSGSGSGTEFTLTISSLQPDDFATYYCFQGSGYPFTFGGGTKVEIKR
B18: Clone 27 (Fab) (Fab, V domains shown)
VH: B1 VH with S32A, D57G, D60S, S100D, T103F, W105F
VL: B1 VL with S24L, A25P, S28R, S51M, K52Y, L53Q, A54S
B19: Clone 23 (IgG) (antibody, V domains shown)
VH: B1 VH with S32P, D57G, D60H, S67D, S100D, T103F
VL: B17 VL with L25P, F51M, K52R, S54A
B20: Clone 22 (IgG) (antibody, V domains shown)
VH: B1 VH with S32P, D60H, S67D, S100D, T103F, W105F
VL: B17 VL with F51R, K52G, S54P
B21: Clone 25 (IgG) (antibody, V domains shown)
VH: B1 VH with S32A, D57G, S67D, S100D, T103F, W105F
VL: B17 VL with L25A
B22: Clone 29 (Fab) (Fab, V domains shown)
VH: B1 VH with S32A, D60H, S67D, S100D, T103F, W105F
VL: B1 VL with S28R, S51F, K52F, A54D
B23: Clone 21 (IgG) (antibody, V domains shown)
VH: B1 VH with S32P, D60H, S67D, S100D, T103F, W105F
VL: B17 VL with K52Y
B24: Clone 20 (IgG) (antibody, V domains shown)
VH: B1 VH with S32A, D60S, S67D, S100D, T103F
VL: B17 VL with L25P, F51R, K52Y, L53Q
B25: Clone 28 (Fab) (Fab, V domains shown)
VH: B1 VH with S32A, D60S, S67D, S100D, T103F
VL: B1 VL with A25P, S28R, S51R, K52Y, L53Q, A54S
B26: Clone 26 (IgG) (antibody, V domains shown)
VH: B1 VH with S32A, D57G, D60S, S67D, S100D, T103F, W105F
VL: B17 VL with F51M, K52Y, L53Q
B27: Clone 19 (IgG) (antibody, V domains shown)
VH: B1 VH with S32A, D60H, S67D, S100D, T103F, W105F
VL: B17 VL with L25A, K52F, S54D
B28: Clone 18 (IgG) (antibody, V domains shown)
VH: B1 VH with S32A, D57G, D60S, S67D, S100D, T103F, W105F
VL: B17 VL with S24L, L25P, F51M, K52Y, L53Q

Chain of F protein of respiratory syncytial virus (RSV-Long strain), on infectious virus (respiratory syncytial virus (RSV-Long strain)) (P12568 26-574): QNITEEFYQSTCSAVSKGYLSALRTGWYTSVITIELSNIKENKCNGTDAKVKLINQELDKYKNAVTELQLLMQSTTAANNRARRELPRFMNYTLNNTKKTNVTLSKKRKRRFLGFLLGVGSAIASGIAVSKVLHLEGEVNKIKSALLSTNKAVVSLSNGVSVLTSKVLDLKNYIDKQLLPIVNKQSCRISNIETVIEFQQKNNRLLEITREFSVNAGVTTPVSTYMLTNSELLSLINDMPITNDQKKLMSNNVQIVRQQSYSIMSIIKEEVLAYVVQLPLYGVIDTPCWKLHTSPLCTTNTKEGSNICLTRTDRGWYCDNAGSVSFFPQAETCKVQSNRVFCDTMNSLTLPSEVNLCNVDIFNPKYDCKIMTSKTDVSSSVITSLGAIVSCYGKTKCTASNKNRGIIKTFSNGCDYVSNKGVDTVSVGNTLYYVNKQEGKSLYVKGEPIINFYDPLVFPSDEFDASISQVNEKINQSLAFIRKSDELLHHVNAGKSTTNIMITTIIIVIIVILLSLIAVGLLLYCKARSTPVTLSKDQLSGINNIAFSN

In one assay the target is T1, C-terminal truncated RSV F protein, secreted from recombinant baculovirus-infected cells (respiratory syncytial virus (strain not …, UniProt P03420 26-526)).
T1 construct: also called F antigen of RSV
T1 sequence (P03420 26-526): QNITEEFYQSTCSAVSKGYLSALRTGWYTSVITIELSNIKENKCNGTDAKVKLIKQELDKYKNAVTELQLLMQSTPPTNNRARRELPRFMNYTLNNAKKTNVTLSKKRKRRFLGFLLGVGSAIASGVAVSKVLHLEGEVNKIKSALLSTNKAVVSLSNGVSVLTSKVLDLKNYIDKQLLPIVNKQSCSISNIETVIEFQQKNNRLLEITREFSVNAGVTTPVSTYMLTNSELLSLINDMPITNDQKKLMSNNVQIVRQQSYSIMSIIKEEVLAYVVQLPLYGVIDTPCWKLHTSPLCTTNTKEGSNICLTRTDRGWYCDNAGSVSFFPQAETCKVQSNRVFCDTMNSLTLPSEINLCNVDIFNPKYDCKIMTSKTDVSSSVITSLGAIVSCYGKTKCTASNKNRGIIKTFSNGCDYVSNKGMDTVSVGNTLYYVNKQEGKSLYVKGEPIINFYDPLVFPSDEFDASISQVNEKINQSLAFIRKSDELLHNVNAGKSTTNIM
The experiment in a line: SPR (BIAcore), F protein immobilized, Fab injected. In general terms: SPR reads the build-up and loss of mass on a sensor chip optically.
Experimental: A typical kinetic study involved the injection of 35 ml of Mab at varying concentrations (25-300 nM) in PBS buffer containing 0.05% Tween-20 (PBS/Tween). The flow rate was maintained at 5 ml/min, giving a 7 min binding phase. Following the injection of Mab, the flow was exchanged with PBS/Tween buffer for 30 min for determining the rate of dissociation. The sensor chip was regenerated between cycles with a 2 min pulse of 10 mM HCI.
More specifically, for measurement of kassoc (or kₒₙ), F protein was directly immobilized by the EDC/NHS method (EDC=N-ethyl-N′-[3-diethylaminopropyl)-carbodiimide). Briefly, 4 μg/ml of F protein in 10 mM NaOAc, pH 4.0 was prepared and about a 30 μl injection gives about 500 RU (response units) of immobilized F protein under the above referenced conditions. The blank flow cell (VnR immobilized-CM dextran surface) was subtracted for kinetic analysis. The column could be regenerated using 100 mM HCI (with 72 seconds of contact time being required for full regeneration). […] The dissociation phase was analyzed from 230 seconds (30 seconds after start of the dissociation phase) to 900 seconds. Kinetics were analyzed by 1:1 Langmuir fitting (global fitting). Measurements were done in HBS-EP buffer (10 mM HEPES, pH 7.4, 150 mM NaCl, 3 mM EDTA, 0.005% (v/v) Surfactant P20.
For measuring k_{off (or k}dissoc) the following conditions were employed. Briefly, 4100 RU of F protein were immobilized (as above) with CM-dextran used as the blank. Here, 3000 RU of Fab was bound (with dissociated Fab high enough to offset machine fluctuation). […] The dissociation phase was 6-15 hours at a flow rate of 5 μl/min.
On to B1, for which the koff was found to be 0.00065 s⁻¹ and the kon is 185000 M⁻¹ s⁻¹.

Regarding B2, the koff stood at 0.00028 s⁻¹ and the kon amounted to 781000 M⁻¹ s⁻¹.

As for B3, the koff was determined as 0.000273 s⁻¹ and the kon came to 375000 M⁻¹ s⁻¹.

For the molecule B4, the koff turned out to be 0.000251 s⁻¹ and the kon came to 370000 M⁻¹ s⁻¹.

In the case of B5, the koff stood at 0.000422 s⁻¹ and the kon is 605000 M⁻¹ s⁻¹.

As to B6, the koff was found to be 0.00032 s⁻¹ and the kon is 185000 M⁻¹ s⁻¹.

As to B7, the koff turned out to be 0.000453 s⁻¹ and the kon stood at 790000 M⁻¹ s⁻¹.

B8: the koff turned out to be 0.000282 s⁻¹ and the kon is 663000 M⁻¹ s⁻¹.

For the molecule B9, the koff turned out to be 0.000306 s⁻¹ and the kon turned out to be 416000 M⁻¹ s⁻¹.

In the case of B10, the koff is 0.000462 s⁻¹ and the on-rate constant (kon) was 757000 M⁻¹ s⁻¹.

Take B11: the koff turned out to be 0.000422 s⁻¹ and the association rate constant (kon) amounted to 531000 M⁻¹ s⁻¹.

On to B12, for which the koff came to 0.00023 s⁻¹ and the kon came out at 743000 M⁻¹ s⁻¹.

As for B13, the dissociation rate constant (koff) came to 0.000326 s⁻¹ and the kon came to 365000 M⁻¹ s⁻¹.

For the molecule B14, the koff was 0.000717 s⁻¹ and the kon amounted to 571000 M⁻¹ s⁻¹.

With B15, the koff was determined as 0.00025 s⁻¹ and the kon is 735000 M⁻¹ s⁻¹.

With B16, the koff was determined as 0.000299 s⁻¹ and the kon stood at 527000 M⁻¹ s⁻¹.

The next assay deals with T2, F protein of respiratory syncytial virus (RSV-Long strain), on infectious virus (respiratory syncytial virus (RSV-Long …, UniProt P12568 26-574)). The experiment in a line: cell-based or functional assay.
Regarding B1, the “EC50 (nM), RSV microneutralization” value came to 3.52 nM.

As to B2, the “EC50 (nM), RSV microneutralization” value worked out at 0.56 nM.

Take B3: the “EC50 (nM), RSV microneutralization” value was 2.67 nM.

Take B4: the “EC50 (nM), RSV microneutralization” value was 1.59 nM.

In the case of B5, the “EC50 (nM), RSV microneutralization” value is 4.7 nM.

In the case of B6, the “EC50 (nM), RSV microneutralization” value is 2.88 nM.

As to B7, the “EC50 (nM), RSV microneutralization” value amounted to 3.24 nM.

As to B8, the “EC50 (nM), RSV microneutralization” value amounted to 0.29 nM.

On to B9, for which the “EC50 (nM), RSV microneutralization” value was 2.61 nM.

Consider B10, for which the “EC50 (nM), RSV microneutralization” value was 3.55 nM.

For the molecule B11, the “EC50 (nM), RSV microneutralization” value was 5.05 nM.

On to B12, for which the “EC50 (nM), RSV microneutralization” value was found to be 0.81 nM.

For B13, the “EC50 (nM), RSV microneutralization” value was 2.26 nM.

On to B14, for which the “EC50 (nM), RSV microneutralization” value was found to be 20.9 nM.

Turning to B15, the “EC50 (nM), RSV microneutralization” value worked out at 2.23 nM.

On to B16, for which the “EC50 (nM), RSV microneutralization” value was found to be 1.06 nM.

The next assay concerns the target T2, F protein of respiratory syncytial …. The experiment in a line: cell-based or functional assay. This is another data set of the same source.
As for B2, the “Mean IC50 µg/ml, RSV microneutralization” value amounted to 0.0264 µg/mL and the “Mean IC50 (Control) µg/ml, RSV microneutralization” value (“Mean IC50 (Control) µg/ml” below) stood at 0.0258 µg/mL.

B7: the “Mean IC50 µg/ml, RSV microneutralization” value stood at 0.157 µg/mL and the “Mean IC50 (Control) µg/ml” value came out at 0.125 µg/mL.

In the case of B8, the “Mean IC50 µg/ml, RSV microneutralization” value is 0.0407 µg/mL and the “Mean IC50 (Control) µg/ml” value was 0.0326 µg/mL.

As for B12, the “Mean IC50 µg/ml, RSV microneutralization” value amounted to 0.0287 µg/mL and the “Mean IC50 (Control) µg/ml” value was determined as 0.031 µg/mL.

As for B14, the “Mean IC50 µg/ml, RSV microneutralization” value is above 1 µg/mL and the “Mean IC50 (Control) µg/ml” value is above 1 µg/mL.

Regarding B15, the “Mean IC50 µg/ml, RSV microneutralization” value was found to be 0.12 µg/mL and the “Mean IC50 (Control) µg/ml” value amounted to 0.102 µg/mL.

For B16, the “Mean IC50 µg/ml, RSV microneutralization” value amounted to 0.0464 µg/mL and the “Mean IC50 (Control) µg/ml” value is 0.0351 µg/mL.

Substrate in another assay: F protein of respiratory syncytial virus (RSV-Long strain), on infectious virus (respiratory syncytial virus (RSV-Long strain)) (UniProt P12568)
The experiment in a line: cell-based or functional assay.
B17: the Mean IC50 µg/ml, RSV microneutralization was found to be 0.0625 µg/mL and the Mean IC50 (Control) µg/ml, RSV microneutralization worked out at 0.0645 µg/mL.

For B18, the Mean IC50 µg/ml, RSV microneutralization stood at 0.0179 µg/mL and the Mean IC50 (Control) µg/ml, RSV microneutralization worked out at 0.0171 µg/mL.

As for B19, the Mean IC50 µg/ml, RSV microneutralization came to 0.0217 µg/mL and the Mean IC50 (Control) µg/ml, RSV microneutralization was 0.0289 µg/mL.

B20: the Mean IC50 µg/ml, RSV microneutralization worked out at 0.0242 µg/mL and the Mean IC50 (Control) µg/ml, RSV microneutralization worked out at 0.0235 µg/mL.

Take B21: the Mean IC50 µg/ml, RSV microneutralization was found to be 0.0357 µg/mL and the Mean IC50 (Control) µg/ml, RSV microneutralization worked out at 0.0354 µg/mL.

B22: the Mean IC50 µg/ml, RSV microneutralization came out at 0.0414 µg/mL and the Mean IC50 (Control) µg/ml, RSV microneutralization amounted to 0.0411 µg/mL.

Turning to B23, the Mean IC50 µg/ml, RSV microneutralization is 0.0231 µg/mL and the Mean IC50 (Control) µg/ml, RSV microneutralization was 0.0223 µg/mL.

Turning to B24, the Mean IC50 µg/ml, RSV microneutralization worked out at 0.0337 µg/mL and the Mean IC50 (Control) µg/ml, RSV microneutralization was found to be 0.0383 µg/mL.

On to B25, for which the Mean IC50 µg/ml, RSV microneutralization was determined as 0.177 µg/mL and the Mean IC50 (Control) µg/ml, RSV microneutralization came out at 0.157 µg/mL.

For B26, the Mean IC50 µg/ml, RSV microneutralization worked out at 0.0376 µg/mL and the Mean IC50 (Control) µg/ml, RSV microneutralization is 0.0375 µg/mL.

Consider B27, for which the Mean IC50 µg/ml, RSV microneutralization came to 0.0171 µg/mL and the Mean IC50 (Control) µg/ml, RSV microneutralization worked out at 0.0154 µg/mL.

As for B28, the Mean IC50 µg/ml, RSV microneutralization was 0.0342 µg/mL and the Mean IC50 (Control) µg/ml, RSV microneutralization came out at 0.0354 µg/mL.
